Measurements as given in patent publication EP2975059A1.

Biological target: Human PCSK9 form a' (human)
Assay: SPR ProteOn XPR36, antibody captured on anti-human IgG, PCSK9 variant as analyte, 25 C, 1:1 model

Kd: 0.185 nM | koff: 2.29e-05 s⁻¹ | kon: 124000 M⁻¹ s⁻¹
Substance: Evolocumab (antibody)
